# Data published in patent US20170008955A1 (CNJ, published 2017).
# Where a chain is given by its changes, count along the chain named.
# B1: hu5E3-IgG1 (antibody, V domains shown)
# VH: QVQLQQSGPEVKKPGASVKISCKASGYIFTSYYIQWVIHAPGQGLEWIGWIYPGNVNTKYNEKFKGKATLTADKSSSTAYMELSSLTSEDTAVYFCARMDYEAHYWGQGTTVTVSS
# VL: DIQMTQSPSSLSASVGDRVTITCRASQEISGYLTWLQQKPEGAIKRLIYAASTLDSGVPKRFSGSRSGSDYSLTISSLQPEDFATYNCLQYANYPRTFGGGTKLEIK
# notes: human IgG1/kappa; also called humanized 5E3 IgG1; IHA variant
# B2: hu5E3-IgG2 (antibody, V domains shown)
# VH: B1 VH
# VL: B1 VL
# notes: human IgG2/kappa; also called humanized 5E3 IgG2
# B3: hu5E3-IgG4 (antibody, V domains shown)
# VH: B1 VH
# VL: B1 VL
# notes: human IgG4/kappa; also called humanized 5E3 IgG4
# B4: murine monoclonal antibody 5E3 (antibody, V domains shown)
# VH: B1 VH with V11L, K12V, K19R, A40R, E82Q, S85R, T91S, V112L
# VL: B1 VL with V15L, D17E, T20S, I21L, E41D, A43T, Q79E, P80S, T85D
# notes: mouse antibody of the 5E3 hybridoma; also called murine 5E3; m5E3
# B5: rehu5E3-IgG4 (antibody, V domains shown)
# VH: B1 VH with K12V, T87R, T91S, T111L
# VL: B1 VL with V15L, I21L, G42K, S72T, T85D
# notes: human IgG4/kappa; also called IgG4 rehu version
# Target: T1, cSNK:BSA conjugate (bovine, head-to-tail cyclized; conjugated to BSA carrier)
# T1 construct: also called BSA-cSNK
# Test: BLI 2:1 fit, site 1; 25 nM row
# Description: (§1) Biolayer interferometry (Octet […], ForteBio) was used to qualitatively/quantitatively assess the interactions between humanized versions of 5E3 and cSNK:BSA conjugate. […] MAbs were loaded onto sensors and then washed in PBST. Each sensor was associated with one of several cSNK:BSA standards (100 nM to 0 nM) and then washed in PBST. Data was processed statistically using ForteBio Data Analysis software to determine the strength of antigen-antibody binding (KD). For each mAb analyzed, a 2:1 model provided the “best fit”.
# T1 sequence (P02769 25-607 limits assumed): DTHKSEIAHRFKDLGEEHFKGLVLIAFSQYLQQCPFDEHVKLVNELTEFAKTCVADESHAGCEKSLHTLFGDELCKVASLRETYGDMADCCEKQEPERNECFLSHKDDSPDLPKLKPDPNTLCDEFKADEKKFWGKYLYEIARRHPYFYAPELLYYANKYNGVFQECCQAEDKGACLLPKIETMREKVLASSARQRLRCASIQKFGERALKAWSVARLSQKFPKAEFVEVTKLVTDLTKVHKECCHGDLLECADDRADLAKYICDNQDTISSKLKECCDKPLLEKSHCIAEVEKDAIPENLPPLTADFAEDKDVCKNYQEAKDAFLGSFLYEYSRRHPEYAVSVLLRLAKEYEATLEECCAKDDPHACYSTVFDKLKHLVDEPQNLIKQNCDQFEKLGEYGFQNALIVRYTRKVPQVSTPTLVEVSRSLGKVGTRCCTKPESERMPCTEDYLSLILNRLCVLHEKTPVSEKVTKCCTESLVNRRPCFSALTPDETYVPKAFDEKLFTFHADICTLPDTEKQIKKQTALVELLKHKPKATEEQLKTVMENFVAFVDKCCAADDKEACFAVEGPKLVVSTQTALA
Kd,koff,kon,Binder
0.463 nM,0.000825 s⁻¹,1.78e+06 M⁻¹ s⁻¹,B1
1.18 nM,0.000762 s⁻¹,644000 M⁻¹ s⁻¹,B2
0.633 nM,0.00055 s⁻¹,868000 M⁻¹ s⁻¹,B3
0.33 nM,0.000428 s⁻¹,1.29e+06 M⁻¹ s⁻¹,B4
–,0.000386 s⁻¹,692000 M⁻¹ s⁻¹,B5

# Target: T1, cSNK:BSA conjugate
# Test: BLI 2:1 fit, site 1; 50 nM row
# Description: as §1
Kd,koff,kon,Binder
0.463 nM,0.000825 s⁻¹,1.78e+06 M⁻¹ s⁻¹,B1
1.18 nM,0.000762 s⁻¹,644000 M⁻¹ s⁻¹,B2
0.633 nM,0.00055 s⁻¹,868000 M⁻¹ s⁻¹,B3
0.33 nM,0.000428 s⁻¹,1.29e+06 M⁻¹ s⁻¹,B4
–,0.000386 s⁻¹,692000 M⁻¹ s⁻¹,B5

# Target: T1, cSNK:BSA conjugate
# Test: BLI 2:1 fit, site 1; 100 nM row
# Description: as §1
Kd,koff,kon,Binder
1.18 nM,0.000762 s⁻¹,644000 M⁻¹ s⁻¹,B2
0.633 nM,0.00055 s⁻¹,868000 M⁻¹ s⁻¹,B3
0.33 nM,0.000428 s⁻¹,1.29e+06 M⁻¹ s⁻¹,B4
–,0.000386 s⁻¹,692000 M⁻¹ s⁻¹,B5

# Target: T1, cSNK:BSA conjugate
# Test: BLI 2:1 fit, site 1; 12.5 nM row
# Description: as §1
Kd,koff,kon,Binder
0.463 nM,0.000825 s⁻¹,1.78e+06 M⁻¹ s⁻¹,B1
1.18 nM,0.000762 s⁻¹,644000 M⁻¹ s⁻¹,B2
0.633 nM,0.00055 s⁻¹,868000 M⁻¹ s⁻¹,B3
0.33 nM,0.000428 s⁻¹,1.29e+06 M⁻¹ s⁻¹,B4
–,0.000386 s⁻¹,692000 M⁻¹ s⁻¹,B5

# Target: T1, cSNK:BSA conjugate
# Test: BLI 2:1 fit, site 1; 3.13 nM row
# Description: as §1
Kd,koff,kon,Binder
0.463 nM,0.000825 s⁻¹,1.78e+06 M⁻¹ s⁻¹,B1
1.18 nM,0.000762 s⁻¹,644000 M⁻¹ s⁻¹,B2
0.633 nM,0.00055 s⁻¹,868000 M⁻¹ s⁻¹,B3
0.33 nM,0.000428 s⁻¹,1.29e+06 M⁻¹ s⁻¹,B4
–,0.000386 s⁻¹,692000 M⁻¹ s⁻¹,B5

# Target: T1, cSNK:BSA conjugate
# Test: BLI 2:1 fit, site 1; 6.25 nM row
# Description: as §1
Kd,koff,kon,Binder
0.463 nM,0.000825 s⁻¹,1.78e+06 M⁻¹ s⁻¹,B1
1.18 nM,0.000762 s⁻¹,644000 M⁻¹ s⁻¹,B2
0.633 nM,0.00055 s⁻¹,868000 M⁻¹ s⁻¹,B3
0.33 nM,0.000428 s⁻¹,1.29e+06 M⁻¹ s⁻¹,B4
–,0.000386 s⁻¹,692000 M⁻¹ s⁻¹,B5

# Target: T1, cSNK:BSA conjugate
# Test: BLI (Octet), 1:1 model, BSA-cSNK
# Description: Biolayer interferometry (Octet Red92, ForteBio) was used to qualitatively/quantitatively assess the interactions between humanized 5E3 and Δ5E3 mAbs to the cSNK:BSA conjugate. […] MAbs were loaded onto sensors and then washed in PBST. Each sensor was associated with one of several cSNK:BSA standards (100 nM to 0 nM) and then washed in PBST. Data was processed statistically using ForteBio Data Analysis software to determine the strength of antigen-antibody binding (KD). For each mAb analyzed, a 1:1 model provided the “best fit”.
row,Kd,Binder
1,2.01 nM,B1
2,0.326 nM,B2
3,1.31 nM,B3

# Target: T1, cSNK:BSA conjugate
# Test: BLI 2:1 fit, site 2 (KD2); 50 nM row
# Description: as §1
row,Kd,Binder
1,1.82 nM,B1
2,6.39 nM,B2
3,3.04 nM,B3
4,1.59 nM,B4
5,3.94 nM,B5

# Target: T1, cSNK:BSA conjugate
# Test: BLI 2:1 fit, site 2 (KD2); 25 nM row
# Description: as §1
row,Kd,Binder
1,1.82 nM,B1
2,6.39 nM,B2
3,3.04 nM,B3
4,1.59 nM,B4
5,3.94 nM,B5

# Target: T1, cSNK:BSA conjugate
# Test: BLI 2:1 fit, site 2 (kon2); 50 nM row
# Description: as §1
row,kon,Binder
1,6.56e+06 M⁻¹ s⁻¹,B1
2,5.28e+06 M⁻¹ s⁻¹,B2
3,7.52e+06 M⁻¹ s⁻¹,B3
4,1.42e+07 M⁻¹ s⁻¹,B4
5,4.44e+06 M⁻¹ s⁻¹,B5

# Target: T1, cSNK:BSA conjugate
# Test: BLI 2:1 fit, site 2 (KD2); 100 nM row
# Description: as §1
row,Kd,Binder
1,6.39 nM,B2
2,3.04 nM,B3
3,1.59 nM,B4
4,3.94 nM,B5

# Target: T1, cSNK:BSA conjugate
# Test: BLI 2:1 fit, site 2 (kon2); 25 nM row
# Description: as §1
row,kon,Binder
1,6.56e+06 M⁻¹ s⁻¹,B1
2,5.28e+06 M⁻¹ s⁻¹,B2
3,7.52e+06 M⁻¹ s⁻¹,B3
4,1.42e+07 M⁻¹ s⁻¹,B4
5,4.44e+06 M⁻¹ s⁻¹,B5

# Target: T1, cSNK:BSA conjugate
# Test: BLI 2:1 fit, site 2 (KD2); 3.13 nM row
# Description: as §1
row,Kd,Binder
1,1.82 nM,B1
2,6.39 nM,B2
3,3.04 nM,B3
4,1.59 nM,B4
5,3.94 nM,B5

# Target: T1, cSNK:BSA conjugate
# Test: BLI 2:1 fit, site 2 (kdis2); 25 nM row
# Description: as §1
row,koff,Binder
1,0.012 s⁻¹,B1
2,0.0338 s⁻¹,B2
3,0.0229 s⁻¹,B3
4,0.0226 s⁻¹,B4
5,0.0175 s⁻¹,B5

# Target: T1, cSNK:BSA conjugate
# Test: BLI 2:1 fit, site 2 (kon2); 100 nM row
# Description: as §1
row,kon,Binder
1,5.28e+06 M⁻¹ s⁻¹,B2
2,7.52e+06 M⁻¹ s⁻¹,B3
3,1.42e+07 M⁻¹ s⁻¹,B4
4,4.44e+06 M⁻¹ s⁻¹,B5

# Target: T1, cSNK:BSA conjugate
# Test: BLI 2:1 fit, site 2 (kdis2); 100 nM row
# Description: as §1
row,koff,Binder
1,0.0338 s⁻¹,B2
2,0.0229 s⁻¹,B3
3,0.0226 s⁻¹,B4
4,0.0175 s⁻¹,B5

# Target: T1, cSNK:BSA conjugate
# Test: BLI 2:1 fit, site 2 (kon2); 3.13 nM row
# Description: as §1
row,kon,Binder
1,6.56e+06 M⁻¹ s⁻¹,B1
2,5.28e+06 M⁻¹ s⁻¹,B2
3,7.52e+06 M⁻¹ s⁻¹,B3
4,1.42e+07 M⁻¹ s⁻¹,B4
5,4.44e+06 M⁻¹ s⁻¹,B5

# Target: T1, cSNK:BSA conjugate
# Test: BLI 2:1 fit, site 2 (kon2); 6.25 nM row
# Description: as §1
row,kon,Binder
1,6.56e+06 M⁻¹ s⁻¹,B1
2,5.28e+06 M⁻¹ s⁻¹,B2
3,7.52e+06 M⁻¹ s⁻¹,B3
4,1.42e+07 M⁻¹ s⁻¹,B4
5,4.44e+06 M⁻¹ s⁻¹,B5

# Target: T1, cSNK:BSA conjugate
# Test: BLI 2:1 fit, site 2 (kon2); 1.56 nM row
# Description: as §1
row,kon,Binder
1,6.56e+06 M⁻¹ s⁻¹,B1
2,7.52e+06 M⁻¹ s⁻¹,B3
3,1.42e+07 M⁻¹ s⁻¹,B4
4,4.44e+06 M⁻¹ s⁻¹,B5

# Target: T1, cSNK:BSA conjugate
# Test: BLI 2:1 fit, site 2 (kdis2); 3.13 nM row
# Description: as §1
row,koff,Binder
1,0.012 s⁻¹,B1
2,0.0338 s⁻¹,B2
3,0.0229 s⁻¹,B3
4,0.0226 s⁻¹,B4
5,0.0175 s⁻¹,B5

# Target: T1, cSNK:BSA conjugate
# Test: BLI 2:1 fit, site 2 (kdis2); 6.25 nM row
# Description: as §1
row,koff,Binder
1,0.012 s⁻¹,B1
2,0.0338 s⁻¹,B2
3,0.0229 s⁻¹,B3
4,0.0226 s⁻¹,B4
5,0.0175 s⁻¹,B5

# Target: T1, cSNK:BSA conjugate
# Test: BLI 2:1 fit, site 2 (kdis2); 1.56 nM row
# Description: as §1
row,koff,Binder
1,0.012 s⁻¹,B1
2,0.0229 s⁻¹,B3
3,0.0226 s⁻¹,B4
4,0.0175 s⁻¹,B5

# Target: T1, cSNK:BSA conjugate
# Test: BLI (Octet RED96), 2:1 kinetics, KD1, summary table
# Description: as §1
# (§2) Table 7 summarizes the affinity constants of humanized 5E3 IgG1, IgG2 and IgG4 constructs. The KD ranges were determined using 2:1 kinetics of binding of analyte (BSA-cSNK) in solution to two different binding sites on the surface (immobilized bivalent, monospecific 5E3) in comparison to murine 5E3 using biolayer interferometry (Octet RED96).
row,Kd,Binder
1,0.463 nM,B1
2,1.18 nM,B2
3,0.633 nM,B3
4,0.33 nM,B4
5,0.557 nM,B5

# Target: T1, cSNK:BSA conjugate
# Test: BLI (Octet RED96), 2:1 kinetics, KD2, summary table
# Description: as §1, §2
row,Kd,Binder
1,0.182 nM,B1
2,6.39 nM,B2
3,0.304 nM,B3
4,0.394 nM,B5
